Data published in article PMC9330781.

Biological target: Recombinant blood coagulation factor VIII (human)
Settings: scale: times higher molar excess over FVIII

- FVIII activity in the chromogenic substrate (CS) assay; thrombin-cleaved scFv 1000 to 0.24 nM with 145 pM FVIII; molar excess needed for the same inhibition as the non-cleaved scFv: 100
B1: Thrombin-cleaved iKM33-v2 (mixture of dissociated VH and VL) (protein)
VH: EVQLVESGGGVVQPGRSLRLSCVDSGLTFSSYGMHWVRQAPGAGLEWVAVISYDGNDKYYADSVKGRFAISRDNAKNTLYLQMNSLTIEDTAVYYCAKDLIESNIAEAFWGQGTLVTVSS
VL: DIQMTQSPSSLSASVGDTVTIACRASRDIRNDLAWYQQKPGKAPKLLIYATSRLQSGVPSRFSGSGSFTDFTLTINSLQPDDSATYYCLQDSDYPLTFGGGTKVDIK
